Experimental data published in US12723255B2, “Herbicide tolerance genes and methods of use thereof” (priority 2014, dated 2026).

Experiments:
[1] = system: F1 hybrid maize plants; test: efficacy field trial for quizalofop-P tolerance and clethodim sensitivity; format: in vivo; conditions: scale 0 to 100; for average injury rating, V4 Growth Stage, 4x Quizalofop / average injury rating, V8 Growth Stage, 4x Quizalofop: 0.32 lb ai/acre at VE-V2, V4, V8; for average injury rating, V4 Growth Stage, 4x Quizalofop / average injury rating, V8 Growth Stage, 4x Quizalofop / average injury rating, V4 Growth Stage, 8x Quizalofop / average injury rating, V8 Growth Stage, 8x Quizalofop / average injury rating, V4 Growth Stage, 16x Quizalofop / average injury rating, V8 Growth Stage, 16x Quizalofop: with CTP unless label says no CTP; for average injury rating, V4 Growth Stage, 8x Quizalofop / average injury rating, V8 Growth Stage, 8x Quizalofop: 0.64 lb ai/acre at VE-V2, V4, V8; for average injury rating, V4 Growth Stage, 16x Quizalofop / average injury rating, V8 Growth Stage, 16x Quizalofop: 1.28 lb ai/acre at VE-V2, V4, V8; for average injury rating, V8 Growth Stage, 1x Clethodim: clethodim 0.25 lb ai/acre at V8, volunteer control
How it was run: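 F1 hybrids of MON89034 × R1 plants carrying MON-HT constructs, NK603×MON89034 control, at two sites. Quizalofop-P at 0.32, 0.64 or 1.28 lb ai/acre + 0.25% v/v NIS at VE-V2, V4 and V8; clethodim 0.25 lb ai/acre + NIS at V8. Injury rated visually 0–100 at 10-14 days after application.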

[2] = system: F1 hybrid maize plants; test: trait efficacy field trial, quizalofop-P pressure screening, F1 hybrid; format: in vivo; conditions: crop injury percentage; for 4X Qizalofop-P CIPV4 / 4X Qizalofop-P CIPV8: 0.32 lb ai/acre at VE-V2, V4, V8; for 8X Qizalofop-P CIPV4 / 8X Qizalofop-P CIPV8: 0.64 lb ai/acre at VE-V2, V4, V8; for 16X Qizalofop-P CIPV4 / 16X Qizalofop-P CIPV8: 1.28 lb ai/acre at VE-V2, V4, V8
Procedure: Separate trait efficacy field trials for quizalofop-P and 2,4-D pressure screening were conducted at one location each with F1 hybrid transgenic plants produced by crossing an inbred plant containing maize event MON89034 with an R1 plant containing MON-HT1, MON-HT2, MON-HT8, MON-HT9, and MON-HT10 with and without operably linked CTP sequences. Transgenic F1 hybrid plants containing maize events NK603×MON89034 were used for comparison as a control.
In the trait efficacy field trial for quizalofop-P tolerance, one of three herbicide treatments was used: (1) quizalofop-P (Assure II) at 0.32 lb ai/acre (4×) plus 0.25% v/v non-ionic surfactant (NIS) applied at VE-V2 growth stage followed by the same at V4 growth stage followed by the same at V8 growth stage; (2) quizalofop-P at 0.64 lb ai/acre (8×) plus 0.25% v/v NIS applied at VE-V2 growth stage followed by the same at V4 growth stage followed by the same at V8 growth stage; or (3) quizalofop-P at 1.28 lb ai/acre (16×) plus 0.25% v/v NIS applied at VE-V2 growth stage followed by the same at V4 growth stage followed by the same at V8 growth stage. Plots were visually rated as above. […] The injury rating for the control plants after all quizalofop-P application was 100%. Error was calculated using LSD (0.05).

[3] = format: biochemical
How it was run: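 Quizalofop-P or 2,4-D was the substrate. All components were pre-heated 5 min at the test temperature, and the reaction was held there throughout. Activity was normalized to 25 °C readings (wild-type enzyme at 25 °C for the in-depth set), and T1/2 is the temperature giving half-maximal activity.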

[4] = system: F1 hybrid maize plants; test: efficacy field trial for 2,4-D tolerance; format: in vivo; conditions: scale 0 to 100, with CTP unless label says no CTP; for average injury rating, V4 Growth Stage, 8x 2,4-D / average injury rating, V8 Growth Stage, 8x 2,4-D: 8 lb ae/acre at VE-V2, V4, V8; for average injury rating, V4 Growth Stage, 16x 2,4-D / average injury rating, V8 Growth Stage, 16x 2,4-D: 16 lb ae/acre at VE-V2, V4, V8
How it was run: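 F1 hybrid maize carrying MON89034 crossed with MON-HT events, NK603×MON89034 hybrids as control, grown at two field locations. 2,4-D amine at 2, 4, 8 or 16 lb ac/acre plus 0.25% v/v NIS applied at VE-V2, V4 and V8; plots visually rated for injury after V4 and V8 applications.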

B1: MON-HT1: engineered oxygenase protein, amino acid sequence SEQ ID NO:14 (protein)
chain: MHAALTPLTNKYRFIDVQPLTGVLGAEITGVDLREPLDDSTWNEILDAFHTYQVIYFPGQAITNEQHIAFSRRFGPVDPVPILKSIEGYPEVQMIRREANESSRFIGDDWHTDSTFLDAPPAAVVMRAIEVPEYGGDTGFLSMYSAWETLSPTMQATIEGLNVVHSATKVFGSLYQATNWRFSNTSVKVMDVDAGDRETVHPLVVTHPVTGRRALYCNQVYCQKIQGMTDAESKSLLQFLYEHATKFDFTCRVRWKKDQVLVWDNLCTMHRAVPDYAGKFRYLTRTTVAGDKPSR
average injury rating, V4 Growth Stage, 4x Quizalofop [1]: 0.0
average injury rating, V8 Growth Stage, 4x Quizalofop [1]: 2.0
average injury rating, V4 Growth Stage, 4x Quizalofop ([1]; listed as MON-HT1 (no CTP)): 5.8
average injury rating, V8 Growth Stage, 4x Quizalofop ([1]; listed as MON-HT1 (no CTP)): 3.3
average injury rating, V4 Growth Stage, 8x Quizalofop [1]: 0.8
average injury rating, V8 Growth Stage, 8x Quizalofop [1]: 2.0
average injury rating, V4 Growth Stage, 8x Quizalofop ([1]; listed as MON-HT1 (no CTP)): 11.3
average injury rating, V8 Growth Stage, 8x Quizalofop ([1]; listed as MON-HT1 (no CTP)): 7.5
average injury rating, V4 Growth Stage, 16x Quizalofop [1]: 4.5
average injury rating, V8 Growth Stage, 16x Quizalofop [1]: 5.5
average injury rating, V4 Growth Stage, 16x Quizalofop ([1]; listed as MON-HT1 (no CTP)): 18.8
average injury rating, V8 Growth Stage, 16x Quizalofop ([1]; listed as MON-HT1 (no CTP)): 16.3
average injury rating, V8 Growth Stage, 1x Clethodim [1]: 93.3
average injury rating, V8 Growth Stage, 1x Clethodim ([1]; listed as MON-HT1 (no CTP)): 94.5
4X Qizalofop-P CIPV4 ([2]; CTP A): 0
4X Qizalofop-P CIPV8 ([2]; CTP A): 7.5
8X Qizalofop-P CIPV4 ([2]; CTP A): 2.5
8X Qizalofop-P CIPV8 ([2]; CTP A): 10
16X Qizalofop-P CIPV4 ([2]; CTP A): 5
16X Qizalofop-P CIPV8 ([2]; CTP A): 15
4X Qizalofop-P CIPV4 ([2]; CTP B): 2.5
4X Qizalofop-P CIPV8 ([2]; CTP B): 5
8X Qizalofop-P CIPV4 ([2]; CTP B): 2.5
8X Qizalofop-P CIPV8 ([2]; CTP B): 7.5
16X Qizalofop-P CIPV4 ([2]; CTP B): 2.5
16X Qizalofop-P CIPV8 ([2]; CTP B): 20
4X Qizalofop-P CIPV4 ([2]; CTP C): 0
4X Qizalofop-P CIPV8 ([2]; CTP C): 5
8X Qizalofop-P CIPV4 ([2]; CTP C): 2.5
8X Qizalofop-P CIPV8 ([2]; CTP C): 10
16X Qizalofop-P CIPV4 ([2]; CTP C): 5
16X Qizalofop-P CIPV8 ([2]; CTP C): 20
4X Qizalofop-P CIPV4 ([2]; no CTP): 2.5
4X Qizalofop-P CIPV8 ([2]; no CTP): 10
8X Qizalofop-P CIPV4 ([2]; no CTP): 10
8X Qizalofop-P CIPV8 ([2]; no CTP): 22.5
16X Qizalofop-P CIPV4 ([2]; no CTP): 22.5
16X Qizalofop-P CIPV8 ([2]; no CTP): 37.5
T1/2, temperature at which the enzyme activity was half of maximum [3]: 42 °C
T1/2 higher than the wild-type enzyme [3]: about 1 °C
average injury rating, V4 Growth Stage, 2x 2,4-D ([4]; 2 lb ae/acre at VE-V2, V4, V8): 0.0
average injury rating, V8 Growth Stage, 2x 2,4-D ([4]; 2 lb ae/acre at VE-V2, V4, V8): 1.3
average injury rating, V8 Growth Stage, 2x 2,4-D ([4]; 2 lb ae/acre at VE-V2, V4, V8, listed as MON-HT1 (no CTP)): 2.5
average injury rating, V4 Growth Stage, 4x 2,4-D ([4]; 4 lb ae/acre at VE-V2, V4, V8): 0.0
average injury rating, V8 Growth Stage, 4x 2,4-D ([4]; 4 lb ae/acre at VE-V2, V4, V8): 1.5
average injury rating, V8 Growth Stage, 4x 2,4-D ([4]; 4 lb ae/acre at VE-V2, V4, V8, listed as MON-HT1 (no CTP)): 4.0
average injury rating, V4 Growth Stage, 8x 2,4-D [4]: 5.0
average injury rating, V8 Growth Stage, 8x 2,4-D [4]: 8.3
average injury rating, V4 Growth Stage, 8x 2,4-D ([4]; listed as MON-HT1 (no CTP)): 5.8
average injury rating, V8 Growth Stage, 8x 2,4-D ([4]; listed as MON-HT1 (no CTP)): 8.8
average injury rating, V4 Growth Stage, 16x 2,4-D [4]: 6.3
average injury rating, V8 Growth Stage, 16x 2,4-D [4]: 16.3
average injury rating, V4 Growth Stage, 16x 2,4-D ([4]; listed as MON-HT1 (no CTP)): 12.5
average injury rating, V8 Growth Stage, 16x 2,4-D ([4]; listed as MON-HT1 (no CTP)): 13.8
